These results are taken from article PMC7553327, “The vimentin rod domain blocks P-selectin-P-selectin glycoprotein ligand 1 interactions to attenuate leukocyte adhesion to inflamed endothelium” (PLoS ONE, 2020).

In general, Kd refers to the concentration at which binding is half-saturated. One may read the IC50 as the concentration that gives 50% inhibition.

Series [1] has as its target T1, P-selectin/Fc (human, UniProt P16109 42-771).
T1 construct: P-selectin; Labelled with IR800CW dye for the SPOT-Vim array; No catalogue number printed; also called P-sel/Fc; P-sel/Fc-IR800; source: bought: R & D Systems
T1 sequence (looked up): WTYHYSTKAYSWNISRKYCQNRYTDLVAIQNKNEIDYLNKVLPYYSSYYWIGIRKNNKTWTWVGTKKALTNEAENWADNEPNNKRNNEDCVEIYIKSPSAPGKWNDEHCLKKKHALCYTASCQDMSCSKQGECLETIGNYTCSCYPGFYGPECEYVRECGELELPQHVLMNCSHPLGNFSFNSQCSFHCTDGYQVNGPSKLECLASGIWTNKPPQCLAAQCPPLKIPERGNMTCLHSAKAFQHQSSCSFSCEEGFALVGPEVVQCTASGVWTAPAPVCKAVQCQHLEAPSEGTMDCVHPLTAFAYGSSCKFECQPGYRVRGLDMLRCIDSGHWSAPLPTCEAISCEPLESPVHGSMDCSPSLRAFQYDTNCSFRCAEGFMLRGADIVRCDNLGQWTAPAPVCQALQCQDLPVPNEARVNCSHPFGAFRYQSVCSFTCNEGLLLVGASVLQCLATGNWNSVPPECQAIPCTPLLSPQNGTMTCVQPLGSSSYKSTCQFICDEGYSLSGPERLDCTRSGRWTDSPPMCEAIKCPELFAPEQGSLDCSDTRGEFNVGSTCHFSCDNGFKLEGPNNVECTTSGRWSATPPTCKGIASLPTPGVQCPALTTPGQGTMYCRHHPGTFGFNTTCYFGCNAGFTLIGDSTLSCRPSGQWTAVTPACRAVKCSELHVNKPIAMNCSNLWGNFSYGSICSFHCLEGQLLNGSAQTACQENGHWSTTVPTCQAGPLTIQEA
Put plainly: BLI; rhVim or rhRod (50 μg/mL) immobilised by amine coupling on AR2G sensors; P-sel/Fc or PSGL-1/Fc as analyte, 0–1,000 nM; DPBS; steady state analysis. The settings on record: both partners purified. Background: BLI is a label-free optical method that tracks binding on a fibre tip over time.

Series [2] addresses T1, P-selectin/Fc. The experiment in a line: BLI; blocking: P-sel/Fc on AR2G sensors placed into rhRod 0–1,000 nM (association, then dissociation in DPBS), then into 500 nM PSGL-1/Fc (Sino Biological); PSGL-1/Fc response against rhRod concentration, non-linear regression; in duplicate. The settings on record: both partners purified.
Series [3] concerns the molecule itself. The experiment in a line: SDS-PAGE in non-reducing and reducing conditions, Coomassie stain; purified protein; non-reduced against reduced.
In series [4] the target is T1, P-selectin/Fc. The experiment in a line: BLI; P-sel/Fc or PSGL-1/Fc (10 μg/mL) immobilised on anti-human IgG Fc (AHC) sensors; rhVim or rhRod as analyte, 0–1,000 nM; DPBS; steady state analysis. The settings on record: both partners purified.
The target of series [5] is T1, P-selectin/Fc. The experiment in a line: BLI; separate set of experiments: room temperature aliquot of rhRod (1,000 nM) on immobilized P-sel/Fc, performed as above; DPBS. The following applies: both partners purified.
For series [6], the target named is T1, P-selectin/Fc. Put plainly: BLI; P-sel/Fc immobilised on AR2G sensors; PSGL-1/Fc (Sino Biological) as analyte, 0–1,000 nM; DPBS; in duplicate. The settings on record: both partners purified.

B1: recombinant human rod domain of vimentin (domain or fragment)
chain: not shown
notes: vimentin, human, rod domain, aa residues 96-407 (base pairs 717-1,652 of NM_00380.3 as printed); 38.2 kDa used for concentration; Labelled with IR800CW dye for the SPOT-Psel array; Dimerized in non-reducing SDS-PAGE. ΔrhRod is the same protein after 10 minutes in boiling water; also called rhRod; rod domain of recombinant vimentin
As for B1, the results for the Kd with P-selectin/Fc [1], in the series with P-selectin/Fc [4] and in the series with P-selectin/Fc [5] were 41 ± 6 nM, 10 ± 0.6 nM and 280 ± 61 nM, respectively. Half-maximal inhibition in the series with P-selectin/Fc [2] (IC50) required 20 nM. Moreover, the binding result in series [3] is reported as “binds”.

B2: recombinant human PSGL-1/Fc (Sino Biological Inc.) (Fc fusion, UniProt Q14242 42-320, looked up)
chain: QATEYEYLDYDFLPETEPPEMLRNSTDTTPLTGPGTPESTTVEPAARRSTGLDAGGAVTELTTELANMGNLSTDSAAMEIQTTQPAATEAQTTQPVPTEAQTTPLAATEAQTTRLTATEAQTTPLAATEAQTTPPAATEAQTTQPTGLEAQTTAPAAMEAQTTAPAAMEAQTTPPAAMEAQTTQTTAMEAQTTAPEATEAQTTQPTATEAQTTPLAAMEALSTEPSATEALSMEPTTKRGLFIPFSVSSVTHKGIPMAASNLSVNYPVGAPDHISVKQC
notes: P-selectin glycoprotein ligand-1, human; No catalogue number printed; source: bought: Sino Biological Inc
Molecule B2 came in with a dissociation constant (Kd) with P-selectin/Fc [6] of 240 ± 67 nM.
